Ten molecules from patent US20230030674A1 (SOTIO BIOTECH A S, published 2023) can be followed below.

As usually defined, the EC50 is the concentration giving half of the maximal effect. The low end stands for a more potent agent, the high end for a less potent agent.

Substitutions are numbered along the chain they refer to.

First the molecules themselves.
B1: hGBA-1 (antibody, human IgG1, kappa, V domains shown)
VH: EVQLVQSGAEVKKPGESLKISCKGSGYSFTSYWIGWVRQMPGKGLEWMGNIYPGASDTRYAPSFQGQVTISADKSISTAYLQWSSLKASDTAMYYCARLWRGNSFDYWGQGTLVTVSS
VL: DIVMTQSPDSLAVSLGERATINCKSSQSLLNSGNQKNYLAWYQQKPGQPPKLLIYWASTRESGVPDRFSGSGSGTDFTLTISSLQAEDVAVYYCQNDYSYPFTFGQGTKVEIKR
notes: Humanized IgG1; X and chain(s) not specified, so tags not built in
B2: hGBA-8 (antibody, human IgG1, kappa, V domains shown)
VH: B1 VH with G54S, A55E, D57Y, R59N, A97T
VL: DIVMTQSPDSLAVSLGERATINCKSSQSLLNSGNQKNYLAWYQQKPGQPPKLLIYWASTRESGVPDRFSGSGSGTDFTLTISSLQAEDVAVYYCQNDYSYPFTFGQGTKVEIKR
notes: as for B1
B3: hGBA-7 (antibody, human IgG1, kappa, V domains shown)
VH: B1 VH with A55E, S56A, D57Y, A61S, A97T
VL: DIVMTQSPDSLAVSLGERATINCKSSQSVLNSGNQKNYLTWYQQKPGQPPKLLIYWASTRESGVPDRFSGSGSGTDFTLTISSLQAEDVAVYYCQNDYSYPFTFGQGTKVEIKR
notes: as for B1
B4: hGBA-3 (antibody, human IgG1, kappa, V domains shown)
VH: B1 VH with N50I, R59N, L99I
VL: DIVMTQSPDSLAVSLGERATINCKSSQSLLNSGNQKNYLAWYQQKPGQPPKLLIYWASTRESGVPDRFSGSGSGTDFTLTISSLQAEDVAVYYCQNDYSYPLTFGQGTKVEIKR
notes: as for B1
B5: hGBA-6 (antibody, human IgG1, kappa, V domains shown)
VH: B1 VH with S28T, D57Y, A61S, A97T, L99Q
VL: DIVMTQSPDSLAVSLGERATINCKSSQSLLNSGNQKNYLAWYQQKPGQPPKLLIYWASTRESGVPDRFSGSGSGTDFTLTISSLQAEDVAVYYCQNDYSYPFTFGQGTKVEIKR
notes: as for B1
B6: hGBA-4 (antibody, human IgG1, kappa, V domains shown)
VH: B1 VH with N50I, A55D, S56A, D57Y, A61S, A97T, Y107A
VL: B4 VL with A40T
notes: as for B1
B7: hGBA-2 (antibody, human IgG1, kappa, V domains shown)
VH: B1 VH with A55D, S56A, L99M
VL: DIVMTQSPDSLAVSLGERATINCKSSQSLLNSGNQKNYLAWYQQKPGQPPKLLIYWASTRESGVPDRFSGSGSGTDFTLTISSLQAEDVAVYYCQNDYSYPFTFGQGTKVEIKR
notes: as for B1
B8: hGBA-5 (antibody, human IgG1, kappa, V domains shown)
VH: B1 VH with N50I, S56A, D57Y
VL: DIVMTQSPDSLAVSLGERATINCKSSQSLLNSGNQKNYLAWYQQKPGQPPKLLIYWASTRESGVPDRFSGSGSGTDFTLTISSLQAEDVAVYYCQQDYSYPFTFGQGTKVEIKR
notes: as for B1
B9: hGBA-9 (antibody, human IgG1, kappa, V domains shown)
VH: B1 VH with S28T, N50I, G54S, S56A, D57Y, A97T, L99M
VL: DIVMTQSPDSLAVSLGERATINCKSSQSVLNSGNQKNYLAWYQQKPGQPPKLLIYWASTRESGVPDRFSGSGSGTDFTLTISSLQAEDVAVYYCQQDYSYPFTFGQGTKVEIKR
notes: as for B1
B10: IMAB362 (antibody, human IgG1, kappa, V domains shown)
VH: QVQLQQPGAELVRPGASVKLSCKASGYTFTSYWINWVKQRPGQGLEWIGNIYPSDSYTNYNQKFKDKATLTVDKSSSTAYMQLSSPTSEDSAVYYCTRSWRGNSFDYWGQGTTLTVSS
VL: DIVMTQSPSSLTVTAGEKVTMSCKSSQSLLNSGNQKNYLTWYQQKPGQPPKLLIYWASTRESGVPDRFTGSGSGTDFTLTISSVQAEDLAVYYCQNDYSYPFTFGSGTKLEIKR
notes: X and which chain(s) are not specified, so the tags are not built in; also called Claudiximab; Zolbetuximab

The first test concerns the target T1, huCLDN18.2 (human, UniProt P56856-2 1-261).
T1 construct: whole, on cells; Full-length huCLDN18.2 stably overexpressed in HEK293T cells (pPB-Puro-huCldn18.2); also called human CLDN18.2
As to the kind of experiment: flow cytometry titration on HEK293T cells overexpressing CLDN18.2.
Procedure: (§1) A PE-coupled secondary anti-human IgG antibody was added to the cells for additional 30 min at 4° C. after washes with the FACS buffer, followed by further washes with FC buffer. The cells were then resuspended in 100 μl FC buffer and measured with a FACSCalibur™ cell analyzer (BD Biosciences, USA).
As for B1, the midpoint of the response, the EC50, lay at 0.259 mg/L and the “Max MFI” value was 3030 MFI.

As to B2, the midpoint of the response, the EC50, lay at 0.187 mg/L and the “Max MFI” value is 2700 MFI.

As for B3, the EC50 is 0.42 mg/L and the “Max MFI” value worked out at 3250 MFI.

For the molecule B4, a half-maximal response (EC50) required 0.273 mg/L and the “Max MFI” value was 2750 MFI.

On to B5, for which it took 0.257 mg/L to reach a half-maximal effect (EC50) and the “Max MFI” value came to 2890 MFI.

Consider B6, for which it took 0.357 mg/L to reach a half-maximal effect (EC50) and the “Max MFI” value is 2790 MFI.

B7: the response was half-maximal at 0.249 mg/L (EC50) and the “Max MFI” value amounted to 2970 MFI.

As to B8, it took 0.305 mg/L to reach a half-maximal effect (EC50) and the “Max MFI” value turned out to be 3320 MFI.

In the case of B9, the EC50 came to 0.241 mg/L and the “Max MFI” value turned out to be 3120 MFI.

Take B10: a half-maximal response (EC50) required 0.388 mg/L and the “Max MFI” value amounted to 1970 MFI.

A further test deals with T1, huCLDN18.2. As to the kind of experiment: flow cytometry titration on PA-TU-8988S-High cells (endogenous CLDN18.2). On the technique in general: A flow cytometer gives signals particle by particle.
Procedure: as §1
Take B1: the EC50 turned out to be 0.444 mg/L and the “Max MFI” value worked out at 2530 MFI.

In the case of B2, the EC50 was 0.303 mg/L and the “Max MFI” value is 2370 MFI.

For B3, it took 0.323 mg/L to reach a half-maximal effect (EC50) and the “Max MFI” value was found to be 2320 MFI.

With B4, the EC50 amounted to 0.352 mg/L and the “Max MFI” value worked out at 2160 MFI.

On to B5, for which the EC50 came out at 0.191 mg/L and the “Max MFI” value came to 2240 MFI.

Take B6: the EC50 came to 0.412 mg/L and the “Max MFI” value worked out at 2010 MFI.

B7: the EC50 came to 0.584 mg/L and the “Max MFI” value turned out to be 2400 MFI.

Take B8: the EC50 is 0.159 mg/L and the “Max MFI” value was 2560 MFI.

With B9, the EC50 worked out at 0.286 mg/L and the “Max MFI” value worked out at 2440 MFI.

B10: the response was half-maximal at 0.508 mg/L (EC50) and the “Max MFI” value is 1050 MFI.
